Measurements taken from publication PMC9482650, “Quantitative fragmentomics allow affinity mapping of interactomes” (Nature Communications, 2022).

Assays:
Assay in all cases: holdup assay
Set-up in all cases: key: below the threshold = too weak to quantify, mostly under pKd 3.1 to 4
MAST1, Q9Y2H9 = target: MAST1, Q9Y2H9
PDZD2_2, O15018 = target: T1, PDZD2_2, O15018
T1 sequence (O15018 329-429, limits assumed, looked up): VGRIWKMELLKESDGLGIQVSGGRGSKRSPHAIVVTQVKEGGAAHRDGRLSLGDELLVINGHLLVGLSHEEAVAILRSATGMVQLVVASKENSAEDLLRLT

PDZD7_3, Q9H5P4 = target: T2, PDZD7_3, Q9H5P4
T2 sequence (Q9H5P4 857-944, limits assumed, looked up): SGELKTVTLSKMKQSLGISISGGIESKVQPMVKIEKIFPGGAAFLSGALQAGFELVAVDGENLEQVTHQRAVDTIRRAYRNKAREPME

LNX1_1, Q8TBB1 = target: LNX1_1, Q8TBB1
LNX1_1, Q8TBB1, sequence (Q8TBB1 261-371): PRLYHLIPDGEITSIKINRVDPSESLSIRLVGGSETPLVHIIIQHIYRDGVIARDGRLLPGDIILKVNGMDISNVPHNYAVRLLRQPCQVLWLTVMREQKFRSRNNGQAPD

NHERF3_3, Q5T2W1 = target: T3, NHERF3_3, Q5T2W1
T3 sequence (Q5T2W1 238-333, limits assumed, looked up): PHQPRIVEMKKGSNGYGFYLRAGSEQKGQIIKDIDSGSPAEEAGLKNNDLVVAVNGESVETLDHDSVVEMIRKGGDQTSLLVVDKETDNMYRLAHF

LNX2_3, Q8N448 = target: T4, LNX2_3, Q8N448
T4 sequence (Q8N448 463-564, limits assumed, looked up): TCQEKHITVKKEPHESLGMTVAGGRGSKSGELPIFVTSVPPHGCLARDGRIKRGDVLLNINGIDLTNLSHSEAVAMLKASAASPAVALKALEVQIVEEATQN

APBA3_1, O96018 = target: T5, APBA3_1, O96018
T5 sequence (O96018 389-490, limits assumed, looked up): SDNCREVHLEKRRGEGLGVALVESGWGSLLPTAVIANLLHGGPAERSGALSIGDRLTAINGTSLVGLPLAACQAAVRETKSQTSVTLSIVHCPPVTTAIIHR

NHERF3_4, Q5T2W1 = target: T6, NHERF3_4, Q5T2W1
T6 sequence (Q5T2W1 373-468, limits assumed, looked up): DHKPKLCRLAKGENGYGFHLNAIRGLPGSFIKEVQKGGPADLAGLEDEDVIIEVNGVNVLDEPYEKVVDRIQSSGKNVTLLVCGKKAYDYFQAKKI

GIPC2, Q8TF65 = target: GIPC2, Q8TF65
GIPC2, Q8TF65, sequence (Q8TF65 112-203): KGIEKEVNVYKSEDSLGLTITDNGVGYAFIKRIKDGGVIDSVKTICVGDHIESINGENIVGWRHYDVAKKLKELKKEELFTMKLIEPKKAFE

TJP1_3, Q07157 = target: TJP1_3, Q07157
TJP1_3, Q07157, sequence (Q07157 416-512): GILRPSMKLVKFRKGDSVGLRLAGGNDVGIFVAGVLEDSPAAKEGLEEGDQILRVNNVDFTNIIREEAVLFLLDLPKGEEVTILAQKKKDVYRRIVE

GRIP2_7, Q9C0E4 = target: GRIP2_7, Q9C0E4
GRIP2_7, Q9C0E4, sequence (Q9C0E4 934-1023): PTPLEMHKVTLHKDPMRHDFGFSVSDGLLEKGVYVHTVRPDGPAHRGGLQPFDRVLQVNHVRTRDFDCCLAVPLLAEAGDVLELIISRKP

DFNB31_3, Q9P202 = target: T7, DFNB31_3, Q9P202
T7 sequence (Q9P202 811-907, limits assumed, looked up): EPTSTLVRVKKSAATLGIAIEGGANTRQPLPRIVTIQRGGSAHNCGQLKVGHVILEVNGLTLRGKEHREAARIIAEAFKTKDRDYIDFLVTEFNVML

APBA2_1, Q99767 = target: T8, APBA2_1, Q99767
T8 sequence (Q99767 563-664, limits assumed, looked up): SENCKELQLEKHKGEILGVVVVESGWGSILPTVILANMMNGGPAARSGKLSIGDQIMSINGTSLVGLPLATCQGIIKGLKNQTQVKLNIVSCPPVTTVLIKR

FRMPD2_3, Q68DX3 = target: FRMPD2_3, Q68DX3
FRMPD2_3, Q68DX3, sequence (Q68DX3 1073-1166): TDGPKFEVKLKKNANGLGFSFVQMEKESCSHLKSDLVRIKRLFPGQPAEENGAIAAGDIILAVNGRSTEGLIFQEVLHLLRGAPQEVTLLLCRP

HTRA3, P83110 = target: T9, HTRA3, P83110
T9 sequence (P83110 354-453, limits assumed, looked up): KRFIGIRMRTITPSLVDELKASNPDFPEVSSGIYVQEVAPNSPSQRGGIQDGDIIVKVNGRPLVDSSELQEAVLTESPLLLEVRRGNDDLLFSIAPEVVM

DVL3, Q92997 = target: T10, DVL3, Q92997
T10 sequence (Q92997 244-331, limits assumed, looked up): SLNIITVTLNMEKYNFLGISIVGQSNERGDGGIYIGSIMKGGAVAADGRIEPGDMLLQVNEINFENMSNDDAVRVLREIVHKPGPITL

LRRC7, Q96NW7 = target: T11, LRRC7, Q96NW7
T11 sequence (Q96NW7 1440-1537, limits assumed, looked up): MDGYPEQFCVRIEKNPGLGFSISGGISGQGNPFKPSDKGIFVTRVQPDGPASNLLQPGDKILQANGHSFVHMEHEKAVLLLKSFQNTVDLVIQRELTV

DLG2_2, Q15700 = target: DLG2_2, Q15700
DLG2_2, Q15700, sequence (Q15700 189-283): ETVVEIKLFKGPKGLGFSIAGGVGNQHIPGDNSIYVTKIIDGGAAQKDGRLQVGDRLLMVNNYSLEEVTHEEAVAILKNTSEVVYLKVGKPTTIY

GRIP1_3, Q9Y3R0 = target: T12, GRIP1_3, Q9Y3R0
T12 sequence (Q9Y3R0 247-346, limits assumed, looked up): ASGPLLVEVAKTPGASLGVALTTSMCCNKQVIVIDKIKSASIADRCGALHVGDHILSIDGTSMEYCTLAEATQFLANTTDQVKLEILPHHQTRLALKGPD

Inadl_5, Q8NI35 = target: Inadl_5, Q8NI35
Inadl_5, Q8NI35, sequence (Q8NI35 673-780): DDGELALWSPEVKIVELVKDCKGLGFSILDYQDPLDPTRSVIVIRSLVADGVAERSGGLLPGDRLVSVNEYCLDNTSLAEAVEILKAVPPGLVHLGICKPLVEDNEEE

Inadl_9, Q8NI35 = target: Inadl_9, Q8NI35
Inadl_9, Q8NI35, sequence (Q8NI35 1530-1615): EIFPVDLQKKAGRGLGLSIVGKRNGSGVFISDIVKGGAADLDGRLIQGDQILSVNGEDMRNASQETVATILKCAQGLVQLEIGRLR

APBA1_2, Q02410 = target: T13, APBA1_2, Q02410
T13 sequence (Q02410 742-832, limits assumed, looked up): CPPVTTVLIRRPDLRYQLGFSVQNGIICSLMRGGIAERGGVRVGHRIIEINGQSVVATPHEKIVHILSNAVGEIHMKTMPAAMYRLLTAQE

IL16_3, Q14005 = target: IL16_3, Q14005
IL16_3, Q14005, sequence (Q14005 1107-1207): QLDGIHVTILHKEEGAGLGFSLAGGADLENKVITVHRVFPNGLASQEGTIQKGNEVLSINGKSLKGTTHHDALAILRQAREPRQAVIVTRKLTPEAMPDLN

TJP3_3, O95049 = target: T14, TJP3_3, O95049
T14 sequence (O95049 375-456, limits assumed, looked up): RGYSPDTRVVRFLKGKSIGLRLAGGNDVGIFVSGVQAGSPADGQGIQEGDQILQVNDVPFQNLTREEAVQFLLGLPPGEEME

[1] = plain residues with an end cap or a label only (N-terminal biotin on a linker: ado-ado)
[2] = modified: phospho on T at position -2 from the C-terminal residue

Measured: pKd

MAST1, Q9Y2H9, sequence (Q9Y2H9 962-1065): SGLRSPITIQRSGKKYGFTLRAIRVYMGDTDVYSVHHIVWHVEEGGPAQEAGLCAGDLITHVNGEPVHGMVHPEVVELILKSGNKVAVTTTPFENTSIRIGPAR

B1: GRIK2, Q13002 (peptide)
chain: RRLPGKETMA
below the threshold: MAST1, Q9Y2H9; [1] | PDZD2_2, O15018; [1] | PDZD7_3, Q9H5P4; [1] | LNX1_1, Q8TBB1; [1] | NHERF3_3, Q5T2W1; [1] | LNX2_3, Q8N448; [1] | APBA3_1, O96018; [1] | NHERF3_4, Q5T2W1; [1] | GIPC2, Q8TF65; [1] | TJP1_3, Q07157; [1] | GRIP2_7, Q9C0E4; [1] | DFNB31_3, Q9P202; [1] | APBA2_1, Q99767; [1] | FRMPD2_3, Q68DX3; [1] | HTRA3, P83110; [1] | DVL3, Q92997; [1] | LRRC7, Q96NW7; [1] | DLG2_2, Q15700; [1] | GRIP1_3, Q9Y3R0; [1] | Inadl_5, Q8NI35; [1] | Inadl_9, Q8NI35; [1] | APBA1_2, Q02410; [1] | IL16_3, Q14005; [1] | TJP3_3, O95049; [1]

B2: OR10G3, Q8NGC4 (peptide)
chain: LRSPRTPSEV
3.55: DLG2_2, Q15700; [1]
4.1: APBA1_2, Q02410; [1]
3.54: NHERF3_3, Q5T2W1; [1]
below the threshold: MAST1, Q9Y2H9; [1] | PDZD7_3, Q9H5P4; [1] | LNX1_1, Q8TBB1; [1] | LNX2_3, Q8N448; [1] | APBA3_1, O96018; [1] | NHERF3_4, Q5T2W1; [1] | GIPC2, Q8TF65; [1] | TJP1_3, Q07157; [1] | GRIP2_7, Q9C0E4; [1] | APBA2_1, Q99767; [1] | FRMPD2_3, Q68DX3; [1] | HTRA3, P83110; [1] | DVL3, Q92997; [1] | GRIP1_3, Q9Y3R0; [1] | IL16_3, Q14005; [1] | TJP3_3, O95049; [1]
4.01: Inadl_9, Q8NI35; [1]
3.79: DFNB31_3, Q9P202; [1]
4.73: Inadl_5, Q8NI35; [1]
3.95: PDZD2_2, O15018; [1]
3.48: LRRC7, Q96NW7; [1]

B3: EVI5, O60447 (peptide)
chain: RRRESYSTTV
below the threshold: NHERF3_3, Q5T2W1; [1] | LNX2_3, Q8N448; [1] | APBA3_1, O96018; [1] | NHERF3_4, Q5T2W1; [1] | GIPC2, Q8TF65; [1] | TJP1_3, Q07157; [1] | GRIP2_7, Q9C0E4; [1] | DFNB31_3, Q9P202; [1] | APBA2_1, Q99767; [1] | FRMPD2_3, Q68DX3; [1] | DVL3, Q92997; [1] | LRRC7, Q96NW7; [1] | GRIP1_3, Q9Y3R0; [1] | IL16_3, Q14005; [1] | TJP3_3, O95049; [1]
4.47: LNX1_1, Q8TBB1; [1]
3.74: APBA1_2, Q02410; [1]
5.54: DLG2_2, Q15700; [1]
4.82: MAST1, Q9Y2H9; [1]
4.7: PDZD2_2, O15018; [1]
3.88: Inadl_9, Q8NI35; [1]
4.61: PDZD7_3, Q9H5P4; [1]
3.66: HTRA3, P83110; [1]
3.63: Inadl_5, Q8NI35; [1]

B4: HPV35-E6_-2P, P27228 (peptide)
chain: SKPTRRETEV
3.61: PDZD7_3, Q9H5P4; [2]
3.95: DFNB31_3, Q9P202; [2]
below the threshold: MAST1, Q9Y2H9; [2] | PDZD2_2, O15018; [2] | LNX1_1, Q8TBB1; [2] | NHERF3_3, Q5T2W1; [2] | LNX2_3, Q8N448; [2] | APBA3_1, O96018; [2] | NHERF3_4, Q5T2W1; [2] | GIPC2, Q8TF65; [2] | TJP1_3, Q07157; [2] | GRIP2_7, Q9C0E4; [2] | APBA2_1, Q99767; [2] | FRMPD2_3, Q68DX3; [2] | HTRA3, P83110; [2] | DVL3, Q92997; [2] | LRRC7, Q96NW7; [2] | GRIP1_3, Q9Y3R0; [2] | Inadl_5, Q8NI35; [2] | Inadl_9, Q8NI35; [2] | APBA1_2, Q02410; [2] | IL16_3, Q14005; [2] | TJP3_3, O95049; [2]
3.51: DLG2_2, Q15700; [2]

B5: DCAF7, P61962 (peptide)
chain: YNNCLEILRV
4.08: MAST1, Q9Y2H9; [1]
3.55: DVL3, Q92997; [1]
below the threshold: PDZD2_2, O15018; [1] | PDZD7_3, Q9H5P4; [1] | LNX1_1, Q8TBB1; [1] | NHERF3_3, Q5T2W1; [1] | LNX2_3, Q8N448; [1] | APBA3_1, O96018; [1] | NHERF3_4, Q5T2W1; [1] | GIPC2, Q8TF65; [1] | TJP1_3, Q07157; [1] | GRIP2_7, Q9C0E4; [1] | DFNB31_3, Q9P202; [1] | APBA2_1, Q99767; [1] | FRMPD2_3, Q68DX3; [1] | HTRA3, P83110; [1] | LRRC7, Q96NW7; [1] | DLG2_2, Q15700; [1] | GRIP1_3, Q9Y3R0; [1] | Inadl_5, Q8NI35; [1] | APBA1_2, Q02410; [1] | IL16_3, Q14005; [1] | TJP3_3, O95049; [1]
3.57: Inadl_9, Q8NI35; [1]
